Results on 20 sequences are retold here after a protein production outcome set (Wang et al. 2014).

The data set can be described thus: label from the status in PepcDB records.
As for “MKVFFVVTHLLGSGHLSRTLVLARAHLKAGHEVTLISGGMPVPHLSHDGITLVQLPALRSDGVNFTRLLDDKGDVASETLMRDRREKLLSTFEEAAPDVLVTELFPFGRRSLSDEFLALLNMAKARKNPPRICCSIRDILAPPSKPSKAARVRDIITEFYDAIIVHSDPDVTPLAASWPVTEDIAEKLRYSGFVANPPAPMHPDAPGQGEVLVSAGGGAVGDALYAAALGAAKLNGDLHWRVLVGGADAPAKCAALKEGCPANTTIEPARPDFRQMLHRAKASVSMCGYNTALDILQSGTPAVFVPFDAGGEVEQSLRASALAKMAGIRVVNSVDLQPEALLNTVHSVVQDPRRGPQTRGLDGASRTAELLETLVEASGHAG”, the protein production result is recorded as “failed”.
The entry for “MKVFVIGAGLMGRGIAIAIASKHEVVLQDVSEKALEAAREQIPEELLSKIEFTTTLEKVKDCDIVMEAVFEDLNTKVEVLREVERLTNAPLCSNTSVISVDDIAERLDSPSRFLGVHWMNPPHVMPLVEIVISRFTDSKTVAFVEGFLRELGKEVVVCKGQSLVNRFNAAVLSEASRMIEEGVRAEDVDRVWKHHLGLLYTLFGPLGNLDYIGLDVAYYASLYLYKRFGDEKFKPPEWLQEKIKKGEVGVKAGKGIYEYGPKAYEERVERLKKLLRFLGLE” is “not failed”; for “MKVGSQVIINTSHMKGMKGAEATVTGAYDTTAYVVSYTPTNGGQRVDHHKWVIQEEIKLEHHHHHH” it is “failed”.
As for “MKVIIIGGETTAYYLARSMLSRKYGVVIINKDRELCEEFAKKLKATIIHGDGSHKEILRDAEVSKNDVVVILTPRDEVNLFIAQLVMKDFGVKRVVSLVNDPGNMEIFKKMGITTVLNLTTLITNTVEALIFPDEFSSIIPLEQ”, the protein production result is reported as “not failed”.
As for “MKVIKSNKVTNKFKVSILISTYNKEKFIENTLNNILAQTMNKNDFELIIVDDCSTDNTLDIISKKIESFSNYQFVQLDENSGTPAKPRNLSIDLSKGKYIMFVDGDDWLPSDALENLYTLLKSNKTDYATGLTKYVYSDRIARSGVALSKIAYNKIGLKNFRKSFYHLAPAGRMMKSSVIKKNNIRFPEMIFGEDLQFFAEVFFNTKNISTTQDVVYCANRYDENISLVKSEASTVLNRIKWQNEAYRYLTKKYKNNKIFANLLYRIINKDILEGKFYKKGFIKEIDTLLPVFQDILNTIDNDFNSLDYADDTLNQHALTLIKNGDKEEIIDFVNFYLKKDEKPLYLSNDKYYYVYKENKYKKRMHIILQKIIKKDENIFLKLYSKNSELKYLEIKNRKDPTNYTVLEIKKHLFKTGEYTVQFKANELSKGKLALTVLDKDLNGAAIKSGMQFDFYETVNGNLGYIKKLEHHHHHH”, the protein production result is on record as “not failed”.
The result for “MKVKILVDSTADVPFSWMEKYDIDSIPLYVVWEDGRSEPDEREPEEIMNFYKRIREAGSVPKTSQPSVEDFKKRYLKYKEEDYDVVLVLTLSSKLSGTYNSAVLASKEVDIPVYVVDTLLASGAIPLPARVAREMLENGATIEEVLKKLDERMKNKDFKAIFYVSNFDYLVKGGRVSKFQGFVGNLLKIRVCLHIENGELIPYRKVRGDKKAIEALIEKLREDTPEGSKLRVIGVHADNEAGVVELLNTLRKSYEVVDEIISPMGKVITTHVGPGTVGFGIEVLERKR” reads “not failed”; that for “MKVLIGGYTKKTSKGIYELPFIGEDNEAHLEKAENIISVGGPTYFQKDGDLVFTINNAGDEGGISAFKLSDHGSNEIDRHLTPGASPAYIGINKEKKLLYTANYHTAVLSVFQYSNSGKLALVAQTTHKAESLGPRPEQVDGPHPHFFDETPAGNLVSCDLGNDTVDFYRLENNELKHLAQYKNEAGFGDRHIVFSKDGNYFYVVGELSSQINVVKFNENTWEFEDIATYKTIPEDFTEHNGAAALYITNDGKYIYNSNRGHNSITVFKVNDDHTLSLIQRISTFGDFPRDFNWDETQKYVVAANQNTDNATLYLRNGGNGTLTPIQTEIPVPEGTRVLFTKLEHHHHHH”, “failed”; that for “MKVNTWFGVLELDSNGKTLSSEVFPKDIRELALRSLSLRESRQNLPPEGFDLKTAALECGFTESLSEYYSLLHKVTLETVKLQVSQALTPDQRIIQAVEALDDINETTNSLSERLFEWYGGYFPESGLSGEELAVFISRYGSRENLPPEDPHYLKAKNSMGAKLEAADEVLLKGLAESVCSLYERRKQIEAYIESSMEILAPNLALLAGPMLGARLISIAGSLEKLAAFPSSTIQVIGASKALFKHLRSRAPSPKHGIIYSHPLINTSPWWVRGKVARALAAKLSLAARIDFYSAKRNPSLENELEEKIRKIRAENPRPPQKRQEIRAKPKKKRRKLEHHHHHH”, “not failed”.
As for “MKVVERYIMRRAFVVFLAALVWTLAIVWTTQVLAKIDLVTDSGQSSLTFFEVAALILPSIIPIVVPFALVVAVAQTLSVMNSDSELVVVNAAGASRWTIVRPIMLLALAASVFSFAVDNGIDPYARQKNRALVAQSRADLLSLIIQEGTFRKIEDGLFLQIGERLPDNRLGGIFVADSREEGVNLVYYAKTGSVVERGGEKVLMMNDGVIHRKTLTGDLSVIRFTSYAFDMSAFMAAASEVTLLPKDQTTQYLLNPNVNDKLYQQAPQQYRAEIDQRFSEWLYSMVFALIALAVAGDARSHREARVNPLITAITISLFVRWLGFFAASKADEVPQYAYMVYGVPIVASAVAIWFIVSNRTMELPVAWADWMTNLASRVGDGWNALKLRWSRRGTSGQGIG”, the protein production result is listed as “failed”.
The entry for “MKVVILGSGSYSGTPKPLCNCENCSIARRNPAFRRTRFSLYIEEGKILVDPSPDLHYHLERLNKKVENVFITHAHFDHIFGVPDLQVYKKLIISSNTLGIKVAKELSRLAFGSEVPSGYEWRYEELQFWNEYSFDNFRVIHFPVIHSLEIAGGYLFEIKGRRIGVTGDTGPEILKDEKVKKLLEGVDILIVEMTKRESIPGVHLGVSDSIEFAKVVGASYTVFAHISHTNYSHEVLEKRVRESGVQGEVARDFTIIEVLEHHHHHH” is “failed”.
The result for “MKVVVVDGGGLMGVETALCVRDHGHEVALVQAPGDPHAPLSDEVAEALRGCSVLVDLAHQPSVDIGTLAEDHGLVVDEAALVDSWAGSTGALLRAGAAAGVRHHVCLSVVGVDRIGREGVFRALRNREAMARRSGIPYSILRATQTFDAAEDIATAATEDWIVWVPPAEVRPVSLTDVATLLAHTAVTRPVNGVREIAGPEQFRLDAFVRTALLTEAEYRQVRTDALSPFYGARLRPRDLLPGPDAFIARTTYREWFTGRPAPDTTS” reads “failed”; that for “MKVYPKVSIVMPVYNSERYLAEAIESILDQTYNDFEFIIVDDGSTDESYNIISSYANKDNRIIVISREHRGLVDSLNEGINIARGKYIARMDADDISINNRIEKQFEFLELNKDVDILGTRIEAFGDIDEKQKTIYNSAFSIKFDSQNIEQVFLTSCAIPHPSVMFKKDSIVKLRGYRKEYDTAEDYDLWLRAIRNGYKIVRMDECLIKYRVHNKSKTAVEMFNPKMVEYTMKAKIDYINDTNKKDKVDYLIWGASTGGKLVKKVVESTTDKFNLIGFIDKYKEGEVDECRIYKPEDLMKLHSDYVFIATLPGKEEADEFLKNCGLKKFKEYISLVLEHHHHHH”, “failed”.
With “MKWLDRLKIANYHRKRYKQFGNDKARTLGWQDEYSQISRFEALTRSLCLEAVSILDIGCGFGDLLEYIESQNQYPARYVGIDLQKQFITKARKKAFKTPVNFICGDFSKLVLPQSDYVFASGSLNYKSSNANHTIEMIEKMYRAARIGCVFNLLDEEKLPSMRMLESHNKVGVLRYCRWLCPDAQLIEGYSDHDFTIVMIKKAEPVS”, the protein production result is “failed”.
The result for “MKWNSNLYDHKHSFVAEYGKSMINFVNVGKDQKILDLGCGTGVLTNELAKNGATVIGTDLSKNMIDKAKTNYPNLIFQVKDATNLSFKNEFDTVFSNAVFHWISNQEKLLHSIYTCLKDNGTLICEFGAQNNISQIQTAFEKVIEQKGYSYCSPFFFPSKEEYKLLLDQAGFEVKHIIEYDRPTPLADGEKGLRNWICQFFASDLLEFSDEQKEQILFETEKLCKNSIWKNNQWVADYRRIQIIAVKNKNNGTK” reads “failed”; that for “MKWPWWPVCVPLSKRLTLPLPSTANPVVQPSRLALACANRLFEAADNRERFLQALMTPPAYPATVLWCGEPAAALPFAALPPLPWQPPWVSRFVAGSPTGQHPLHAAGAYYCLDSSSVFAAVPLLTLPQEPSLVIDVCAAPGGKSLFAWRSLHPRYLICNETIGKRVGKLIGNLKRCRVHPVGVTSWDSEVLAAEFQGTADVVIVDAPCSGQSLLAKGQKAEGCFHPLTIRHNQRRQKRILAAATTLVRPGGWLLYSTCTFSQDENEDVAAWLMAKFPHLLPQPVPALAAYQSHLAAFPCYRLWPHQGEGAGAFTILWQHQGKGESNPLPDLGNRRAFGDRWRWQSSSQPA”, “failed”; that for “MKWRCLIYIETRGDILFMTKWFNVGKIVNTHGVRGEIRVISRTDFPEERYKVGNTLYISNEKGTDYLPVKVTSHRQHKTFDLLTFEGYNNVDEVEKFKGSLIKVPEEQLGELAEGEYYYHEIIGCSVVTEEGEALGTIKEILSPGANDVWVIKRPKGQDLLIPYIDDVVLQVNIENKLVTIHVMEGLLLEHHHHHH”, “not failed”.
The entry for “MKWYTKYLQVYEKPFSEAPQEIVEEVRNKLKLLQSDNPLVTVSLIGYNEEKHLLASLWSLSEMKCKYPIEIIGTDNDSKDQTATIYEATGIPYVIEHQHSCGHARLCGLKRAKGKYHINIDSDTMYPPHYVETMVDALERPGIVAVSSLWSYIPDKEHSWVGLKIYEFIRDIHLWIQSIKRPELSVRGLVFAYRTDYARQVGIRTDIRRGEDGSLALRLKEYGNIYFIRKRKARAITGYGTISADGSLFNSFKVRAIYALKNIGRVFTRKKEYKDEDDNLIKSLEHHHHHH” is “not failed”; for “MKYAITGATGHLGQQIVAAMRPLVATTELYLGVHTLSKAQVYQQQGLHIAAIDYQQPEQLRAFFQDSDVLIYIPSKSHDSYSRVQEFENVLAAVQQANVHHFLVMGFIADQVNNPFALSAFYGYVPRRLAGSDINYTIVRNALYADPLVPYLPELIERHNVVYPMADQALSFISQADSAAAFAKVATTPDLLQRGRIYTLTQSRAYTMPELATVLSQVSGQLIGYRPVSLQAFSNMYNQNGEGPMLASMYAGGARGLLATVSDDYQLIMDRPAQSLLDYLQTNYQKS” it is “failed”; for “MKYSLGIDLGTTFSVVSIIDENGAPKVLKNKEGNTLTPSVIYFSGEEIIVGDDAKEMQAMGDNNIACFFKRNMGDENFVLEFQNKYYNAEDLSVIVLKKLKKDAEDFLKAEVKDAVITVPAYFNNIQRQSTINAGKRAEFNVLSILNEPTAAAMAYGMKASGENKNILVYDLGGGTFDVTLVHIGEELIKVLSTDGDHELGGKDWDDRIAMYIGEKFFEKFGVNPMDDIEYYNDILVKCENVKKHLSKRESTDISIYYCDLSEKFTITKEIFLGLTGDLLQRTKSLSDDVIKSAGLTWEDIDGVLPVGGSTRMPMVLDFIKEVSKKEPIVGINVDEAVSIGAAIKASMENATNTPTLRREEKALFTLGGYKKTEDVMSHSLGMIALNSTGERYINSIIIEKNKKIPCTEKRPYEIRTGRNRNNVLEVYMLQGESEEISDCTILGKYVFYDIEYVGRKPSIIDIEYSYNKNGVVDVFATQRETAKKLPLKIEKLSEDFIFEEELNEKEEAVHKNIVIAIDLSGSMRGKPLEEAIEASKTFVDSIDEGSFSLALIGFADKVKTLINLTEDREEIFRAIDGLKKADVGTSTMSEPFSEAYNILKDAYGDCFVVVLTDGQWYGKKDIMAEVNKCKEYEIEIAAIGFGNAKKDFLDKIATCEENSIFTEVSNLKQSFSRIAKVISRSDGSIKIFQKSNSIKLR” it is “failed”.
Take “MKYTVYLFDFDYTLADSSRGIVTCFRSVLERHGYTGITDDMIKRTIGKTLEESFSILTGITDADQLESFRQEYSKEADIYMNANTILFPDTLPTLTHLKKQGIRIGIISTKYRFRILSFLRNHMPDDWFDIIIGGEDVTHHKPDPEGLLLAIDRLKACPEEVLYIGDSTVDAGTAAAAGVSFTGVTSGMTTAQEFQAYPYDRIISTLGQLISVPEDKS”: the protein production result is given as “not failed”.
